The source of these data is IntAct's records for PubMed 35512704.

B1: Speckle-type POZ protein (Homo sapiens), O43791 (parent)
chain: MSRVPSPPPPAEMSSGPVAESWCYTQIKVVKFSYMWTINNFSFCREEMGEVIKSSTFSSGANDKLKWCLRVNPKGLDEESKDYLSLYLLLVSCPKSEVRAKFKFSILNAKGEETKAMESQRAYRFVQGKDWGFKKFIRRDFLLDEANGLLPDDKLTLFCEVSVVQDSVNISGQNTMNMVKVPECRLADELGGLWENSRFTDCCLCVAGQEFQAHKAILAARSPVFSAMFEHEMEESKKNRVEINDVEPEVFKEMMCFIYTGKAPNLDKMADDLLAAADKYALERLKVMCEDALCSNLSVENAAEILILADLHSADQLKTQAVDFINYHASDVLETSGWKSMVVSHPHLVAEAYRSLASAQCPFLGPPRKRLKQS
partner: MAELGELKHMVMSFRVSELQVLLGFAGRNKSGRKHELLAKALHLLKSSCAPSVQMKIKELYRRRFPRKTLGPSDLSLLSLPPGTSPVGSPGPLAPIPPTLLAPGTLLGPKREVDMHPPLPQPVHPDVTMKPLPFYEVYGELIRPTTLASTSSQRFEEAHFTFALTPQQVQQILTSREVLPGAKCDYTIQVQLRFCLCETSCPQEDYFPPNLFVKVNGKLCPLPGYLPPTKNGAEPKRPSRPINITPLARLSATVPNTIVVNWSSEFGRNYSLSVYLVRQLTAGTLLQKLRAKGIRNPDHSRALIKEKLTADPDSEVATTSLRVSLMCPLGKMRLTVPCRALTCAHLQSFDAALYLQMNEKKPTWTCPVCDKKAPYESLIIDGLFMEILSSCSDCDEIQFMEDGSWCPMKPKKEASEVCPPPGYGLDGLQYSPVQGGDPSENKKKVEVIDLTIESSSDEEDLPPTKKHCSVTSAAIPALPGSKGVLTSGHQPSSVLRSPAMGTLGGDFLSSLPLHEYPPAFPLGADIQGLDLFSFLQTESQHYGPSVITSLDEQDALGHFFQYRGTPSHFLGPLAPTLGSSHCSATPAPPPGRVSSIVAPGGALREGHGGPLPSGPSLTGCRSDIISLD
B2: Speckle-type POZ protein (Homo sapiens), O43791 (parent)
chain: B1 chain
partner: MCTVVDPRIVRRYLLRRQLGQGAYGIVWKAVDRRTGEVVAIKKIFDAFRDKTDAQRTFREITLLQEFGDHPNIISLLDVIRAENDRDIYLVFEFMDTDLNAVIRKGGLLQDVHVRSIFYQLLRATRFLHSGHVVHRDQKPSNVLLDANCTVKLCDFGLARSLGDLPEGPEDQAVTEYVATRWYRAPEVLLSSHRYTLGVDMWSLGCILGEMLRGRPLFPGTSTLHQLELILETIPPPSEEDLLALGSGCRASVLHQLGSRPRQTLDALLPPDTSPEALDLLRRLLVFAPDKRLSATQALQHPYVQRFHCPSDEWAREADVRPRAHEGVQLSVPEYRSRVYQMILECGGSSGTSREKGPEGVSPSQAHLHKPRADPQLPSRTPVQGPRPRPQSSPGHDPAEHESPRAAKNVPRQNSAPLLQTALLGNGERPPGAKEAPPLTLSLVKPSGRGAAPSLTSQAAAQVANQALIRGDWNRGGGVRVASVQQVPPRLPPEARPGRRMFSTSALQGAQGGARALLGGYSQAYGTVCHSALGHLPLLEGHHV
B3: Speckle-type POZ protein (Homo sapiens), O43791 (parent)
chain: B1 chain
partner: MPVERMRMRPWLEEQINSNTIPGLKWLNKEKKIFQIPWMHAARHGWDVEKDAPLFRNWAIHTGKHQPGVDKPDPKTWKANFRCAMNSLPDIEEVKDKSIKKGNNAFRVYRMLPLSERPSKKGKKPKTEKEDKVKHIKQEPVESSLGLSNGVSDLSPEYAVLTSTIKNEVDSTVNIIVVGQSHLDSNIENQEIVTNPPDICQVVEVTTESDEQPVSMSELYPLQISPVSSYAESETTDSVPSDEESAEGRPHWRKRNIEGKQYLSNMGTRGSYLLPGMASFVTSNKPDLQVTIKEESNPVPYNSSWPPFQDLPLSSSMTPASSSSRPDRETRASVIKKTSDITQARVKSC
B4: Speckle-type POZ protein (Homo sapiens), O43791 (parent)
chain: B1 chain
partner: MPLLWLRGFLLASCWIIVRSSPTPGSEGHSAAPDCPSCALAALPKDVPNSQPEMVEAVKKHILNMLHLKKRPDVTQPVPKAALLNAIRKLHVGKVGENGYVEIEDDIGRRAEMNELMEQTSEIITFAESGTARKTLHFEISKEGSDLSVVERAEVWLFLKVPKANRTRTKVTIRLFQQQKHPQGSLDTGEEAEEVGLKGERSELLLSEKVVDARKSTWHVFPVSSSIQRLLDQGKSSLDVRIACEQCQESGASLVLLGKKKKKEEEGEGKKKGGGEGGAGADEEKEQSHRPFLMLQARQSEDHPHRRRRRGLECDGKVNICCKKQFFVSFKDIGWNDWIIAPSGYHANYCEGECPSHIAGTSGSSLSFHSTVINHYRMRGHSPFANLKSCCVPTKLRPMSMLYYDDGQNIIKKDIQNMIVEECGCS
B5: Speckle-type POZ protein (Homo sapiens), O43791 (parent)
chain: B1 chain
partner: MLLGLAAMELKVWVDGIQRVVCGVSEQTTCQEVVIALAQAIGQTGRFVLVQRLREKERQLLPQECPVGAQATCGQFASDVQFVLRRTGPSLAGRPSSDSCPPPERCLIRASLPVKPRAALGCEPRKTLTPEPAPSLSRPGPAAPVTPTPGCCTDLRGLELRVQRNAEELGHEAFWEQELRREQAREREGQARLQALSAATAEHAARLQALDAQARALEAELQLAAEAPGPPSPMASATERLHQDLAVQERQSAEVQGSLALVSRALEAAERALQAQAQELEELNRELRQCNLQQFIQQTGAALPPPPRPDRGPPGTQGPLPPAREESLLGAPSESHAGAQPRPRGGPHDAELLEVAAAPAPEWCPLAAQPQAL
B6: Speckle-type POZ protein (Homo sapiens), O43791 (parent)
chain: B1 chain
partner: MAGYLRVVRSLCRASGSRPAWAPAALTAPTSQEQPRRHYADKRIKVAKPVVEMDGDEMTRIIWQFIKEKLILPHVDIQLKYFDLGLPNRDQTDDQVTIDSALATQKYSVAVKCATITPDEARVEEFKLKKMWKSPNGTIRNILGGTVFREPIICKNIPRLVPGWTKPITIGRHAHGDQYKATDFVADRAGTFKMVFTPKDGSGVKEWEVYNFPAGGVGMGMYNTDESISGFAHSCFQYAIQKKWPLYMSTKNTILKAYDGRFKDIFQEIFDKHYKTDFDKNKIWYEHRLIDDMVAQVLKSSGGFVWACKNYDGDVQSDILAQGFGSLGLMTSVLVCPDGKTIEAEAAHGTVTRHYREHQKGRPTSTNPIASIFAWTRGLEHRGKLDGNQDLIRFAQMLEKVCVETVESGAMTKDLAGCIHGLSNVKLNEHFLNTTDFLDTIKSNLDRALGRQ

In the first test the parent is B1. As to conditions: with pias3_human PIAS3, Q9Y6X2.
On to F133L, for which the “effect of a mutation on the interaction” value is reported as “with no effect”.

In another test the parent is B1. As to conditions: with pias3_human PIAS3, Q9Y6X2. The source holds these as a separate data set.
Take F133V: the “effect of a mutation on the interaction” value is “with no effect”.

In another test the parent is B1. As to conditions: with pias3_human PIAS3, Q9Y6X2. This is another data set of the same source.
Take F102C: the “effect of a mutation on the interaction” value is on record as “with no effect”.

Another test covers variants of B1. As to conditions: with pias3_human PIAS3, Q9Y6X2. The source holds these as a separate data set.
As for Y87C, the “effect of a mutation on the interaction” value is reported as “with no effect”.

Variants of B2 are the subject of a further test. Conditions: with mk15_human MAPK15, Q8TD08.
Regarding F133V, the “effect of a mutation on the interaction” value was “with no effect”.

The next test covers variants of B2. Conditions: with mk15_human MAPK15, Q8TD08. This is another data set of the same source.
Turning to F133L, the “effect of a mutation on the interaction” value was “with no effect”.

The variants in a further test derive from B2. As to conditions: with mk15_human MAPK15, Q8TD08. This is another data set of the same source.
On to F102C, for which the “effect of a mutation on the interaction” value was “with no effect”.

In a further test the parent is B2. Conditions: with mk15_human MAPK15, Q8TD08. This is another data set of the same source.
For the variant Y87C, the “effect of a mutation on the interaction” value was “with no effect”.

In a further test the parent is B3. As to conditions: with irf2_human IRF2, P14316.
In the case of Y87C, the “effect of a mutation on the interaction” value is listed as “with no effect”.

The variants in a further test derive from B3. As to conditions: with irf2_human IRF2, P14316. The source holds these as a separate data set.
For F133V, the “effect of a mutation on the interaction” value is listed as “with no effect”.

In the next test the parent is B3. As to conditions: with irf2_human IRF2, P14316. This is another data set of the same source.
As for F133L, the “effect of a mutation on the interaction” value was “with no effect”.

Variants of B3 are the subject of another test. Conditions: with irf2_human IRF2, P14316. This is another data set of the same source.
Regarding F102C, the “effect of a mutation on the interaction” value is “with no effect”.

Variants of B4 are the subject of the next test. Conditions: with inhba_human INHBA.
In the case of Y87C, the “effect of a mutation on the interaction” value was “with no effect”.

Variants of B4 are the subject of another test. Conditions: with inhba_human INHBA. This is another data set of the same source.
For F133L, the “effect of a mutation on the interaction” value is “with no effect”.

Another test covers variants of B4. As to conditions: with inhba_human INHBA. The source holds these as a separate data set.
Regarding F133V, the “effect of a mutation on the interaction” value is “with no effect”.

Variants of B4 are the subject of another test. As to conditions: with inhba_human INHBA. The source holds these as a separate data set.
As to F102C, the “effect of a mutation on the interaction” value was “with no effect”.

Variants of B5 are the subject of another test. Conditions: with rasf7_human RASSF7, Q02833.
In the case of Y87C, the “effect of a mutation on the interaction” value is listed as “with no effect”.

The variants in another test derive from B5. As to conditions: with rasf7_human RASSF7, Q02833. This is another data set of the same source.
Take F102C: the “effect of a mutation on the interaction” value is reported as “with no effect”.

In a further test the parent is B5. As to conditions: with rasf7_human RASSF7, Q02833. The source holds these as a separate data set.
With F133L, the “effect of a mutation on the interaction” value was “with no effect”.

In the next test the parent is B5. As to conditions: with rasf7_human RASSF7, Q02833. This is another data set of the same source.
For the variant F133V, the “effect of a mutation on the interaction” value was “with no effect”.

In the next test the parent is B6. As to conditions: with idhp_human IDH2, P48735.
Regarding F102C, the “effect of a mutation on the interaction” value was “with no effect”.

Another test covers variants of B6. Conditions: with idhp_human IDH2, P48735. The source holds these as a separate data set.
On to F133V, for which the “effect of a mutation on the interaction” value is reported as “with no effect”.

In a further test the parent is B6. Conditions: with idhp_human IDH2, P48735. The source holds these as a separate data set.
F133L: the “effect of a mutation on the interaction” value was “with no effect”.

The variants in a further test derive from B6. Conditions: with idhp_human IDH2, P48735. This is another data set of the same source.
With Y87C, the “effect of a mutation on the interaction” value was “with no effect”.
